The text below walks through data of article PMC5118412 (Cell Discovery, 2016).

Assay [1] addresses EX4-5xGSA-GLP-1R (24–429)–TEV site–tTA (Gila monster | human) (UniProt P43220).
The target of assay [2] is GLP-1-5xGSA-GLP-1R (24–429)–TEV site–tTA (UniProt P43220).
For assay [3], the target named is GLP-1 Δ4-5xGSA-GLP-1R (24–429)–TEV site–tTA (UniProt P43220).
Assay [4] concerns the target GLP-1 Δ5-5xGSA-GLP-1R (24–429)–TEV site–tTA (UniProt P43220).
The test system of another assay is GLP-1R. The note with it: covalently attaches to C347; ref [34], [35]; cited from earlier work. The source says:
GPCRs have been viewed as ‘allosteric machines’ [33] because many allosteric modulators have been identified binding outside the orthosteric pocket of the physiological activators to modulate endogenous agonist binding and function. […] Although mutating C347 to positively charged lysine or arginine ...

The target in assay [5] is human GLP-1R stably expressed in AD293 cells (GLP-1R/NlucP-293 cells) (human) (UniProt P43220).

Take “ß-arrestin 1 fused with TEV protease (from UniProt P49407 1-418) (natural protein)”: the Tango assay (tTA/TRE-luc reporter) in HTL cells; arrestin recruiting signal against the unfused receptor with 1 μM hormone in assay [1] and in assay [2] was 150 throughout. For the same compound, the Tango assay (tTA/TRE-luc reporter) in HTL cells, relative to GLP-1-5GSA-FL (Δ0) (% of GLP-1-5GSA-FL (Δ0)) in assay [3] and in assay [4] was 50 each time.
Turning to `CC[S+]([O-])c1nc(-c2cccc(OCc3ccccc3)c2)cc(C(F)(F)F)n1` (stereo not drawn) [BETP, 4-(3-(Benzyloxy)phenyl)-2-ethylsulfinyl-6 (trifluoromethyl)pyrimidine], the “allosteric modulation of GLP-1R” value with GLP-1R is “positive allosteric modulator”.
On to GLP-1(9–37) (peptide), for which the cAMP signal (CRE-NanoLuc luciferase reporter) in GLP-1R/NlucP-293 cells; potency (EC50) of full-length GLP-1 over that of the truncated GLP-1 in assay [5] came to 1000 fold.
